Laboratory results taken from paper PMC10953559.
Where “and” joins values, the source holds several entries; their conditions need not be identical. Identical values can stand only once.

Target: GroEL14 as used with the substrate proteins NanA and DapA (E. coli) (UniProt P0A6F5)
Experiment: native MS; CE-MS; 6 µM GroEL14 with 6 or 12 µM substrate monomers, denatured in 6.5 M GuHCl and 9 mM DTT and diluted 30-fold into GroEL14 buffer pH 7.5 (200 mM GuHCl, 0.3 mM DTT left); no ATP, no GroES; BGE 50 mM ammonium acetate pH 6.7

B1: dihydrodipicolinate synthase, denatured monomer (DapA) (enzyme)
chain: MFTGSIVAIVTPMDEKGNVCRASLKKLIDYHVASGTSAIVSVGTTGESATLNHDEHADVVMMTLDLADGRIPVIAGTGANATAEAISLTQRFNDSGIVGCLTVTPYYNRPSQEGLYQHFKAIAEHTDLPQILYNVPSRTGCDLLPETVGRLAKVKNIIGIKEATGNLTRVNQIKELVSDDFVLLSGDDASALDFMQLGGHGVISVTANVAARDMAQMCKLAAEGHFAEARVINQRLMPLHNKLFVEPNPIPVKWACKELGLVATDTLRLPMTPITDSGRETVRAALKHAGLL
In the case of B1, the share of the total signal intensity, GroEL14-DapA2 complex is reported as 80% and the stoichiometry N (DapA monomers per GroEL14) is reported as 1 and 2.
